{
  "source": "patent US20180291072",
  "key": {"[1]": {"molecular_target": "KLAK-sFt-GFP fusion peptide (pro-apoptotic peptide-ferritin monomer fragment-linker-GFP fusion polypeptide)"}, "[2]": {"molecular_target": "type II fusion peptide (pro-apoptotic peptide-linker-ferritin monomer fragment-linker-GFP fusion polypeptide)"}},
  "data": [
    {"protein": "Recombinant MMP-2 (protein) YNFFPRKPKWDKNQITYRIIGYTPDLDPETVDDAFARAFQVWSDVTPLRFSRIHDGEADIMINFGRWEHGDGYPFDGKDGLLAHAFAPGTGVGGDSHFDDDELWTLGEGQVVRVKYGNADGEYCKFPFLFNGKEYNSCTDTGRSDGFLWCSTTYNFEKDGKYGFCPHEALFTMGGNAEGQPCKFPFRFQGTSYDSCTTEGRTDGYRWCGTTEDYDRDKKYGFCPETAMSTVGGNSEGAPCVFPFTFLGNKYESCTSAGRSDGKMWCATTANYDDDRKWGFCPDQGYSLFLVAAHEFGHAMGLEHSQDPGALMAPIYTYTKNFRLSQDDIKGIQELYGASPDIDLGTGPTPTLGPVTPEICKQDIVFDGIAQIRGEIFFFKDRFIWRTVTPRDKPMGPLLVATFWPELPEKIDAVYEAPQEEKAVFFAGNEYWIYSASTLERGYPKPLTSLGLPPDVQRVDAAFNWSKNKKTYIFAGDKFWRYNEVKKKMDPGFPKLIADAWNAIPDNLDAVVDLQGGGHSYFFKGAYYLKLENQSLKSVKFGSIKSDWLGC", "values": [
      {"measurement": "linker cleavage, SDS-PAGE", "setting": "wFt-GFP fusion peptide", "result": "sFt-GFP was more easily cleaved by MMP-2 as compared with wFt-GFP"},
      {"measurement": "linker cleavage, SDS-PAGE of products", "setting": "[1]", "result": "each linker of type I fusion peptide and type II fusion peptide was cleaved, and products generated by the linker cleavage were observed in a concentration-dependent manner"},
      {"measurement": "linker cleavage, SDS-PAGE of products", "setting": "[2]", "result": "each linker of type I fusion peptide and type II fusion peptide was cleaved, and products generated by the linker cleavage were observed in a concentration-dependent manner"},
      {"measurement": "linker cleavage, SDS-PAGE", "setting": "sFt-GFP fusion peptide", "result": "sFt-GFP was more easily cleaved by MMP-2 as compared with wFt-GFP"}
    ]}
  ]
}
